The target of the assay is T1, endogenous c-Myc of p53-/- mouse embryo fibroblasts (mouse, UniProt P01108-2 1-439, limits assumed).
T1 construct: Endogenous protein in a cell lysate
In words: co-IP, summary of the experiments (endogenous proteins). From the text: FIGS. 2A-F ARF—binds to c-Myc. FIGS. 2A-D, Coimmunoprecipitation of ARF and c-Myc. Cos-7 cells transfected with c-Myc and/or ARF were subjected to immunoprecipitation (IP) using anti-Mycfl (fl, full length; FIG. 2A) or anti-ARF (FIG. 2B) followed by immunoblot (IB) analysis using the indicated antibody. FIG. 2C, c-myc^{-/-} cells, ARF^{-/-} MEFs or p53^{-/-} MEFs were subjected to IP using anti-Mycfl followed by IB analysis. FIG. 2D, HeLa cells were subjected to IP using anti-p14ARF or anti-Mycfl followed by IB analysis. FIG. 2E, Coimmunoprecipitation of c-Myc deletions with ARF. Cos-7 cells transfected with the indicated c-Myc deletion mutant were subjected to IP with anti-ARF followed by IB analysis. FIG. 2F, Schematic representation of the structure of c-Myc and c-Myc deletions showing relative binding to ARF.
Immunoprecipitation and Immunoblotting Analysis. Cell lysates were prepared and coimmunoprecipitation of endogenous proteins was performed as described previously (Weber et al., 1999). For coimmunoprecipitation of exogenous proteins, cells were lysed in Ab lysis buffer (20 mM Tris, pH 7.5, 0.5% Triton X-100, 0.5% deoxycholic acid (DOC) and 0.5% SDS, 1 mM EDTA) and immunoprecipitates were subjected immunoblot analysis using anti-c-Mycfl (06-340, Upstate) or anti-ARF (Ab80, GeneTex; 07-543, Upstate) and enhanced chemiluminescence for detection. […]

T1 sequence (P01108 16-454 limits assumed): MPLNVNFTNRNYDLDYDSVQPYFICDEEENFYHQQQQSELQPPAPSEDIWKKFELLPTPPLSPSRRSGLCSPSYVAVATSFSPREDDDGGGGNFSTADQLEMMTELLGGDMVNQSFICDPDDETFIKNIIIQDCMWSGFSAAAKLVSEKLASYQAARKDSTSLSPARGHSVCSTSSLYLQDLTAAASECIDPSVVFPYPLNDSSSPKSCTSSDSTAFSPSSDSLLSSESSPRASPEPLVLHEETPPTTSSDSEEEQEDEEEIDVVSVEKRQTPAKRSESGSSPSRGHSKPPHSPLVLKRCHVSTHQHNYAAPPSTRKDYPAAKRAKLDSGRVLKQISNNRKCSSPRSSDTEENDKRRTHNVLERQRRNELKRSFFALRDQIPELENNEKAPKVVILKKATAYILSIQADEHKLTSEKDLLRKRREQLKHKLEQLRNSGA

B1: mouse p19ARF (murine p19Arf) (other)
chain: MGRRFLVTVRIQRAGRPLQERVFLVKFVRSRRPRTASCALAFVNMLLRLERILRRGPHRNPGPGDDDGQRSRSSSSAQLRCRFELRGPHYLLPPGARRSAGRLPGHAGGAARVRGSAGCARCLGSPAARLGPRAGTSRHRAIFAFRWVLFVFRWVVFVYRWERRPDRRA
For the molecule B1, the binding result is on record as “binds”.
